The values below come from patent US20240327535A1 (EISAI R AND D MANAGEMENT, published 2024).

Holding throughout (experiment): Octet BLI; Fab 200 nM
On the technique in general: In BLI a coated tip is dipped into the sample, and binding shifts an interference pattern.

Experiment [1] deals with T1, extracellular domain of human BCMA (human, UniProt Q02223 1-54).
T1 construct: amine-linked to Octet AR2G tips; also called hsBCMA; BCMA (human)
T1 sequence: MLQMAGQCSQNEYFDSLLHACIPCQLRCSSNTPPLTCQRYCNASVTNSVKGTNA

Experiment [2] has as its target T2, extracellular domain of rhesus monkey BCMA (rhesus monkey, UniProt F7FFA0 1-53).
T2 construct: extracellular domain; also called RhBCMA

Experiment [3] has as its target T1, extracellular domain of human BCMA. The source holds these as a separate data set.
Experiment [4] has as its target T2, extracellular domain of rhesus monkey …. This is another data set of the same source.

Like-named read-outs stand apart in the source and are kept apart here.

T2 sequence (F7FFA0 entry or part of it): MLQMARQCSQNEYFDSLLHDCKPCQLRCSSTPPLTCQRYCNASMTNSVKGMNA

B1: AB200-(2Vk31)_R2-CDR1-hs-v3 (Fab, V domains shown)
VH: QVQLVQSGAEVKKPGSSVKVSCKASGGTFSSYAISWVRQAPGQGLEWMGATYRSQSDTYYNQKYKSRVTITADKSTSTAYMELSSLRSEDTAVYYCARGAVYHGYDVIDNWGQGTLVTVSS
VL: DIQMTQSPSSLSASVGDRVTITCRASQSISSYLNWYQQKPGKAPKLLIYATSNLQIGVPSRFSGSGSGTDFTLTISSLQPEDFATYYCQQFRRLPWTFGQGTKLEIKR
The term Kd denotes the free concentration of one partner at which half of the binding sites on the other are occupied at equilibrium, for simple one-to-one binding. B1: the Kd in experiment [1] was found to be 319 nM; in experiment [2], 540 nM.

B2: AB200-(2Vk31)_R2-VH-v21 (Fab, V domains shown)
VH: QVQLVQSGAEVKKPGSSVKVSCKASGGTFSNYWIHWVRQAPGQGLEWMGGTYRSHSDTYYAQKFKSRVTITADKSTSTAYMELSSLRSEDTAVYYCARGAIFHGYDVIDNWGQGTLVTVSS
VL: DIQMTQSPSSLSASVGDRVTITCRASQSISSYLNWYQQKPGKAPKLLIYATSNLQIGVPSRFSGSGSGTDFTLTISSLQPEDFATYYCQQFRRLPWTFGQGTKLEIKR
Regarding B2, the figures for the Kd in experiment [1] and in experiment [2] were 10.7 nM and 29.7 nM, respectively.

B3: AB200-(2Vk31)_R2-VH-v12 (Fab, V domains shown)
VH: QVQLVQSGAEVKKPGSSVKVSCKASGGTYSNYWIHWVRQAPGQGLEWMGATYRSHSTTYYNQKYKSRVTITADKSTSTAYMELSSLRSEDTAVYYCARGAIYHGFDVIDNWGQGTLVTVSS
VL: DIQMTQSPSSLSASVGDRVTITCRASQSISSYLNWYQQKPGKAPKLLIYATSNLQIGVPSRFSGSGSGTDFTLTISSLQPEDFATYYCQQFRRLPWTFGQGTKLEIKR
As to B3, the Kd in experiment [1] stood at 13 nM; in experiment [2], 18.4 nM.

B4: AB200-(2Vk31)_R2-VH-v17 (Fab, V domains shown)
VH: QVQLVQSGAEVKKPGSSVKVSCKASGGSFSNYWIHWVRQAPGQGLEWMGATYRSQSDTYYAQKFKSRVTITADKSTSTAYMELSSLRSEDTAVYYCARGAIFHGYDVIDNWGQGTLVTVSS
VL: DIQMTQSPSSLSASVGDRVTITCRASQSISSYLNWYQQKPGKAPKLLIYATSNLQIGVPSRFSGSGSGTDFTLTISSLQPEDFATYYCQQFRRLPWTFGQGTKLEIKR
Consider B4, for which the Kd was 5.77 nM in experiment [1] and 16.9 nM in experiment [2].

B5: AB200-R1a-Fab_Vk16 (Fab, V domains shown)
VH: QVQLVQSGAEVKKPGSSVKVSCKASGGTFSNYWMHWVRQAPGQGLEWMGATYRGHSDTYYNQKFKGRVTITADKSTSTAYMELSSLRSEDTAVYYCARGAIYHGYDVLDNWGQGTLVTVSS
VL: DIQMTQSPSSLSASVGDRVTITCSASQDITNYLNWYQQKPGKAPKLLIYATSNLHSGVPSRFSGSGSGTDFTLTISSLQPEDFATYYCQEYRKLPWTFGQGTKLEIKR
Consider B5, for which the figures for the Kd in experiment [3] and in experiment [4] were 3.18 nM and 12.9 nM, respectively.

B6: AB200-R1a-Fab_Vk8 (Fab, V domains shown)
VH: QVQLVQSGAEVKKPGSSVKVSCKASGGTFSNYWMHWVRQAPGQGLEWMGATYRGHSDTYYNQKFKGRVTITADKSTSTAYMELSSLRSEDTAVYYCARGAIYHGYDVLDNWGQGTLVTVSS
VL: DIQMTQSPSSLSASVGDRVTITCSASQDISNYLNWYQQKPGKAPKLLIYYTSNLQSGVPSRFSGSGSGTDFTLTISSLQPEDFATYYCHQSRKLPWTFGQGTKLEIKR
Regarding B6, the Kd in experiment [3] was 24.1 nM; in experiment [4], 42.1 nM.

B7: AB200-(2Vk31)_R2-VH-v2 (Fab, V domains shown)
VH: QVQLVQSGAEVKKPGSSVKVSCKASGGTFTNYWIHWVRQAPGQGLEWMGATYRSHSTTNYNQKFKSRVTITADKSTSTAYMELSSLRSEDTAVYYCARGAVYHGYDVIDNWGQGTLVTVSS
VL: DIQMTQSPSSLSASVGDRVTITCRASQSISSYLNWYQQKPGKAPKLLIYATSNLQIGVPSRFSGSGSGTDFTLTISSLQPEDFATYYCQQFRRLPWTFGQGTKLEIKR
As for B7, the figures for the Kd in experiment [1] and in experiment [2] were 25 nM and 55.6 nM, respectively.

B8: AB200-(2Vk31)_R2-VH-v18 (Fab, V domains shown)
VH: QVQLVQSGAEVKKPGSSVKVSCKASGGSFSNYWIHWVRQAPGQGLEWMGATYRSHSDTYYAEKFKSRVTITADKSTSTAYMELSSLRSEDTAVYYCARGAVYHGYDVIDNWGQGTLVTVSS
VL: DIQMTQSPSSLSASVGDRVTITCRASQSISSYLNWYQQKPGKAPKLLIYATSNLQIGVPSRFSGSGSGTDFTLTISSLQPEDFATYYCQQFRRLPWTFGQGTKLEIKR
Turning to B8, the Kd was 3.55 nM in experiment [1] and 14.9 nM in experiment [2].

B9: AB200-R1a-Fab_Vk35 (Fab, V domains shown)
VH: QVQLVQSGAEVKKPGSSVKVSCKASGGTFSNYWMHWVRQAPGQGLEWMGATYRGHSDTYYNQKFKGRVTITADKSTSTAYMELSSLRSEDTAVYYCARGAIYHGYDVLDNWGQGTLVTVSS
VL: DIQMTQSPSSLSASVGDRVTITCSASQDLSNYLNWYQQKPGKAPKLLIYYTSNLHSGVPSRFSGSGSGTDFTLTISSLQPEDFATYYCQQYKKIPWTFGQGTKLEIKR
As for B9, the Kd in experiment [3] amounted to 7.3 nM; in experiment [4] it was 18.9 nM.

B10: AB200-R1a-Fab_Vk2 (Fab, V domains shown)
VH: QVQLVQSGAEVKKPGSSVKVSCKASGGTFSNYWMHWVRQAPGQGLEWMGATYRGHSDTYYNQKFKGRVTITADKSTSTAYMELSSLRSEDTAVYYCARGAIYHGYDVLDNWGQGTLVTVSS
VL: DIQMTQSPSSLSASVGDRVTITCSASQEVSNYLNWYQQKPGKAPKLLIYYTSNLHSGVPSRFSGSGSGTDFTLTISSLQPEDFATYYCQEYRKLPWTFGQGTKLEIKR
Consider B10, for which the Kd in experiment [3] is 4.27 nM; in experiment [4], 14.9 nM.

B11: AB200-R1a-Fab(hCDR3) (Fab, V domains shown)
VH: QVQLVQSGAEVKKPGSSVKVSCKASGGTFSNYWMHWVRQAPGQGLEWMGATYRGHSDTYYNQKFKGRVTITADKSTSTAYMELSSLRSEDTAVYYCARGAIYHGYDVLDNWGQGTLVTVSS
VL: DIQMTQSPSSLSASVGDRVTITCSASQDISNYLNWYQQKPGKAPKLLIYYTSNLHSGVPSRFSGSGSGTDFTLTISSLQPEDFATYYCQQSYSTPWTFGQGTKLEIKR
As for B11, the equilibrium dissociation constant (Kd) was 82.8 nM in experiment [3] and 113 nM in experiment [4].

B12: AB200-R1a-Fab_Vk33 (Fab, V domains shown)
VH: QVQLVQSGAEVKKPGSSVKVSCKASGGTFSNYWMHWVRQAPGQGLEWMGATYRGHSDTYYNQKFKGRVTITADKSTSTAYMELSSLRSEDTAVYYCARGAIYHGYDVLDNWGQGTLVTVSS
VL: DIQMTQSPSSLSASVGDRVTITCSASQDISSYLNWYQQKPGKAPKLLIYFTSNLHSGVPSRFSGSGSGTDFTLTISSLQPEDFATYYCQQSRKLPWTFGQGTKLEIKR
For B12, the dissociation constant Kd in experiment [3] came out at 19.5 nM; in experiment [4], 37.4 nM.

B13: AB200-(2Vk31)_R2-VH-v5 (Fab, V domains shown)
VH: QVQLVQSGAEVKKPGSSVKVSCKASGGTFTNYWIHWVRQAPGQGLEWMGGTYRSHSDTYYNEKFKSRVTITADKSTSTAYMELSSLRSEDTAVYYCARGAIFHGYDVIDNWGQGTLVTVSS
VL: DIQMTQSPSSLSASVGDRVTITCRASQSISSYLNWYQQKPGKAPKLLIYATSNLQIGVPSRFSGSGSGTDFTLTISSLQPEDFATYYCQQFRRLPWTFGQGTKLEIKR
Turning to B13, the Kd is 3.65 nM in experiment [1] and 10.4 nM in experiment [2].

B14: AB200-R1a-Fab_Vk10 (Fab, V domains shown)
VH: QVQLVQSGAEVKKPGSSVKVSCKASGGTFSNYWMHWVRQAPGQGLEWMGATYRGHSDTYYNQKFKGRVTITADKSTSTAYMELSSLRSEDTAVYYCARGAIYHGYDVLDNWGQGTLVTVSS
VL: DIQMTQSPSSLSASVGDRVTITCSASQSISNYLNWYQQKPGKAPKLLIYYTSNLHSGVPSRFSGSGSGTDFTLTISSLQPEDFATYYCQQSRKMPWTFGQGTKLEIKR
Turning to B14, the dissociation constant Kd in experiment [3] came out at 110 nM; in experiment [4] it was 195 nM.

B15: AB200-R1a-Fab_Vk25 (Fab, V domains shown)
VH: QVQLVQSGAEVKKPGSSVKVSCKASGGTFSNYWMHWVRQAPGQGLEWMGATYRGHSDTYYNQKFKGRVTITADKSTSTAYMELSSLRSEDTAVYYCARGAIYHGYDVLDNWGQGTLVTVSS
VL: DIQMTQSPSSLSASVGDRVTITCSASQDISNYLNWYQQKPGKAPKLLIYAASNLHSGVPSRFSGSGSGTDFTLTISSLQPEDFATYYCQQYRKIPWTFGQGTKLEIKR
Consider B15, for which the Kd in experiment [3] turned out to be 3.44 nM; in experiment [4], 13.6 nM.

B16: AB200-R1a-Fab_Vk15 (Fab, V domains shown)
VH: QVQLVQSGAEVKKPGSSVKVSCKASGGTFSNYWMHWVRQAPGQGLEWMGATYRGHSDTYYNQKFKGRVTITADKSTSTAYMELSSLRSEDTAVYYCARGAIYHGYDVLDNWGQGTLVTVSS
VL: DIQMTQSPSSLSASVGDRVTITCSASHEISNYLNWYQQKPGKAPKLLIYYTSSLHSGVPSRFSGSGSGTDFTLTISSLQPEDFATYYCQQYRKLPWTFGQGTKLEIKR
As for B16, the dissociation constant Kd in experiment [3] is 2.93 nM; in experiment [4] it was 9.71 nM.

B17: AB200-R1a-Fab_Vk30 (Fab, V domains shown)
VH: QVQLVQSGAEVKKPGSSVKVSCKASGGTFSNYWMHWVRQAPGQGLEWMGATYRGHSDTYYNQKFKGRVTITADKSTSTAYMELSSLRSEDTAVYYCARGAIYHGYDVLDNWGQGTLVTVSS
VL: DIQMTQSPSSLSASVGDRVTITCTASQSISNYINWYQQKPGKAPKLLIYYTSNLHSGVPSRFSGSGSGTDFTLTISSLQPEDFATYYCQQYRKLPWTFGQGTKLEIKR
With B17, the Kd worked out at 1.56 nM in experiment [3] and 4.78 nM in experiment [4].

B18: AB200-R1a-Fab_Vk9 (Fab, V domains shown)
VH: QVQLVQSGAEVKKPGSSVKVSCKASGGTFSNYWMHWVRQAPGQGLEWMGATYRGHSDTYYNQKFKGRVTITADKSTSTAYMELSSLRSEDTAVYYCARGAIYHGYDVLDNWGQGTLVTVSS
VL: DIQMTQSPSSLSASVGDRVTITCSASQEISNYLNWYQQKPGKAPKLLIYATSNLHSGVPSRFSGSGSGTDFTLTISSLQPEDFATYYCQQYRKLPWSFGQGTKLEIKR
Turning to B18, the Kd came to 2.04 nM in experiment [3] and 8.03 nM in experiment [4].

B19: AB200-R1a-Fab_Vk12 (Fab, V domains shown)
VH: QVQLVQSGAEVKKPGSSVKVSCKASGGTFSNYWMHWVRQAPGQGLEWMGATYRGHSDTYYNQKFKGRVTITADKSTSTAYMELSSLRSEDTAVYYCARGAIYHGYDVLDNWGQGTLVTVSS
VL: DIQMTQSPSSLSASVGDRVTITCSASQDISNYLNWYQQKPGKAPKLLIYYATNLHSGVPSRFSGSGSGTDFTLTISSLQPEDFATYYCQQYRRLPWTFGQGTKLEIKR
Consider B19, for which the Kd in experiment [3] was 4.89 nM; in experiment [4] it was 16.8 nM.
